The values below come from patent publication US20240010735A1 (EISAI R AND D MANAGEMENT, published 2024).

For experiment [1], the target named is T1, mouse EphA8 extracellular region-Fc-His protein (mouse; human, UniProt O09127 27-541).
T1 construct: extracellular domain; not shown: Fc region of human IgG1; histidine tag
T1 sequence (looked up): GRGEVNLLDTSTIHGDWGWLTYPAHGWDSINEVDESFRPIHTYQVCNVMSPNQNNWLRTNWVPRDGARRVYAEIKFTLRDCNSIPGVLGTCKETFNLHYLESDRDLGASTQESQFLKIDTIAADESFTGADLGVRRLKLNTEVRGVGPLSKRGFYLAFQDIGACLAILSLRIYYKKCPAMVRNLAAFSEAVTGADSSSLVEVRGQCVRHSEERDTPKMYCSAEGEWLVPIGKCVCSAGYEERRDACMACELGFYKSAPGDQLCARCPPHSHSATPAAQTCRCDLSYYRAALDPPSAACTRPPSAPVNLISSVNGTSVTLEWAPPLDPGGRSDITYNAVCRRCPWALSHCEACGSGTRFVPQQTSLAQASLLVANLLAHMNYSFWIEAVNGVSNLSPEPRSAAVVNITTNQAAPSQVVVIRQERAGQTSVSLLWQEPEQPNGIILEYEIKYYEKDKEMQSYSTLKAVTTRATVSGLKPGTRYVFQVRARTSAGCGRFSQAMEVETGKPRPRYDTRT
Nature of the experiment: ELISA: Fc-His proteins (1 nM) captured on anti-6-His antibody, antibody A 10 µg/mL with human IgG 100 µg/mL, HRP anti-mouse IgG, OD450 as % of mouse EphA4-Fc-His. On the procedure: (§1) Rabbit anti-6-His antibodies (Bethyl Laboratories) were coated onto the wells of a 96-well plate (Nunc). After incubating at 4° C. overnight, the wells were blocked at room temperature for 1 hour by 1% Block Ace (DS Pharma Biomedical). After washing 3 times with 0.05% Tween 20/PBS (Thermo […]), each Eph receptor of mouse extracellular region-Fc-His protein (final concentration 1 nM) was seeded into each well, and incubated at room temperature for 1 hour. After washing 3 times, human IgG solution (100 μg/mL, Sigma) and antibody A (10 μg/mL) were supplemented to the wells, and incubated at room temperature for 1 hour. Horseradish peroxidase-labeled donkey anti-mouse IgG antibody (Jackson ImmunoResearch Laboratories) was added, and incubated at room temperature for 1 hour. After washing 3 times, TMBZ (3,3′,5,5′-tetramethylbenzidine, Sigma) solution was added to the wells, and upon confirmation of modest coloring, an equal amount of quenching solution (1 N H₂SO₄, Wako Pure Chemicals) was added to the wells, and absorbance at 450 nm was read by a microplate reader (PerkinElmer).
In general terms: ELISA stands for enzyme-linked immunosorbent assay.

Experiment [2] concerns the target T2, mouse EphB4 extracellular region-Fc-His protein (mouse; human, UniProt P54761 16-539).
T2 construct: extracellular domain; not shown: Fc region of human IgG1; histidine tag
T2 sequence (looked up): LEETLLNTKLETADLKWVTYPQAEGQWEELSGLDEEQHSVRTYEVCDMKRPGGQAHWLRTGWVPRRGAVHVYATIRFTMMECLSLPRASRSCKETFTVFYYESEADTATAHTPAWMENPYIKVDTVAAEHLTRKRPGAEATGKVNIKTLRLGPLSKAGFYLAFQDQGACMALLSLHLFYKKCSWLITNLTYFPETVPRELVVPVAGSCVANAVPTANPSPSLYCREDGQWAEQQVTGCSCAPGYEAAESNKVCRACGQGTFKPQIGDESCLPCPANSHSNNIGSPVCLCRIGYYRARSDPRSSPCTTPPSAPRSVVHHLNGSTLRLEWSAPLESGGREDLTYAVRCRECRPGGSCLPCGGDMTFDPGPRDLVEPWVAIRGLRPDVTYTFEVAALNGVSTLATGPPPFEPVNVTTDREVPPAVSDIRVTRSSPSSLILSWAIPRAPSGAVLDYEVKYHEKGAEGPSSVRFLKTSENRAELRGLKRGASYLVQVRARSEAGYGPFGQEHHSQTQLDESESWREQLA
The description is as above. On the procedure: as §1

The target of experiment [3] is T3, monkey EphA4 extracellular region-Fc-His protein (monkey; human).
T3 construct: not shown: Fc region of human IgG1; histidine tag
T3 sequence (chain, as listed by the source): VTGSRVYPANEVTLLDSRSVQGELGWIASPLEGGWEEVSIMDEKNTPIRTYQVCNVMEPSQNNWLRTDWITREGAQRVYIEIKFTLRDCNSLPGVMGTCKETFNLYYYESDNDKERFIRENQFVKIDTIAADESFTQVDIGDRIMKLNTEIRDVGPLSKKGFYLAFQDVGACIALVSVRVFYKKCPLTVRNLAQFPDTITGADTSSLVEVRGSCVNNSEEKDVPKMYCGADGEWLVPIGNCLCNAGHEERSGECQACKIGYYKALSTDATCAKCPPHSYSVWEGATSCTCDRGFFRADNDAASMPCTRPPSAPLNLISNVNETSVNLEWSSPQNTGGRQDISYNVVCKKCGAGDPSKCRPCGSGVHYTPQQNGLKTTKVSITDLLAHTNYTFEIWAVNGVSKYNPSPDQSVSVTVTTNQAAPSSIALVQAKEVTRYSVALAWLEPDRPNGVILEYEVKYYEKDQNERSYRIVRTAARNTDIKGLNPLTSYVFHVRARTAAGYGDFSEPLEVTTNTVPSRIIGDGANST
Nature of the experiment: ELISA: EphA4 extracellular region-Fc-His (1 nM) captured on anti-human IgG antibody, antibody A titrated with human IgG 100 µg/mL, HRP anti-mouse IgG, OD450 as % of top concentration. On the procedure:
(§2) Donkey anti-human IgG antibodies (Jackson ImmunoResearch Laboratories) were coated onto the wells of a 96-well plate (Nunc). After incubating at 4° C. overnight, the wells were blocked at room temperature for 1 hour by 1% Block Ace (DS Pharma Biomedical). After washing 3 times with 0.05% Tween 20/PBS (Thermo […]), mouse, rat, monkey, and human EphA4 extracellular region-Fc-His proteins (final concentration 1 nM) were seeded into the wells, and incubated at room temperature for 1 hour. After washing 3 times, human IgG solution (100 μg/mL, Mitsubishi Pharma Corporation) and antibody A (0, 0.00013, 0.00064, 0.0032, 0.016, 0.08, 0.4, 2, 10, μg/mL) were supplemented to the wells, and incubated at room temperature for 1 hour. Horseradish peroxidase-labeled donkey anti-mouse IgG antibody (Jackson ImmunoResearch Laboratories) was added, and incubated at room temperature for 1 hour. After washing 3 times, TMBZ (3,3′,5,5′-tetramethylbenzidine, Sigma) solution was added to the wells, and upon confirmation of modest coloring, an equal amount of quenching solution (1 N H₂SO₄, Wako Pure Chemicals) was added to the wells, and absorbance at 450 nm was read by a microplate reader (PerkinElmer).

Experiment [4] addresses T4, rat EphA4 extracellular region-Fc-His protein (rat; human, UniProt D3ZZK3 20-547).
T4 construct: range 20-547; also called rat EphA4 extracellular region-Pc-His protein; not shown: Fc region of human IgG1; histidine tag
The description is as above. On the procedure:
as §2

B1: mouse anti-EphA4 monoclonal antibody (antibody A) (antibody, mouse IgG1, kappa, V domains shown)
VH: QVQLKQSGPSLVQPSQSLSITCTVSGFSLTRYGVHWVRQSPGKGLEWLGVIWRGGSTDYNAAFMSRLSITKDNSKSQVFFKMNSLQADDTAIYYCAKESLFGVYYDYGYYSMDYWGQGTSVTVSS
VL: DIQMTQSPSSLSASLGERVSLTCRASQEISGYLSWLQQKPDGTIKRLIYAASTLDSGVPKRFSGSRSGSDYSLTISSLESEDFADYYCLQYASYPLTFGAGTKLELKR
notes: purified from hybridoma supernatant
The term EC50 (read off the curve) denotes the concentration needed to bring the measured effect to its halfway point. Turning to B1, the binding result in experiment [1] and in experiment [2] was “no binding (tested: 10 µg/mL)” in each case. In addition, the “EC50 (read off the curve)” value in experiment [3] and in experiment [4] was roughly 0.1 nM throughout.
